Positions count from the first letter of the chain named.
T1: Grp Y77A (Sulfolobus tokodaii strain 7, UniProt F9VNT4 1-150, Y77A)
T1 sequence: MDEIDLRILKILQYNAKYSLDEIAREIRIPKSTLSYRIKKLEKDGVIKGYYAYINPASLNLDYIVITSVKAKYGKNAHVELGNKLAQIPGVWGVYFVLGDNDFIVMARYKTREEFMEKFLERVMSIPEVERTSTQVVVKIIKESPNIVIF

T2: Grp (glutamine receptor protein) (Sulfolobus tokodaii strain 7, UniProt F9VNT4 1-150)
T2 sequence: T1 sequence with A77Y

T3: Grp S32A (Sulfolobus tokodaii strain 7, UniProt F9VNT4 1-150, S32A)
T3 sequence: T1 sequence with S32A, A77Y

B1: 18-bp grp promoter fragment (dsDNA)
DNA 1: ATATTTTTGTTTATAATA
DNA 2: TATTATAAACAAAAATAT
B2: 111-bp grp promoter (dsDNA)
DNA 1: CGTATCTTCCAAAGATTATAAGCGATTTTTTGTAAGTCTTTTTTTATTATAAGTGTTGATTAGATATAATTCAAAGTAAAGGCTTATATTTTTGTTTATAATATACAGTCT
DNA 2: AGACTGTATATTATAAACAAAAATATAAGCCTTTACTTTGAATTATATCTAATCAACACTTATAATAAAAAAAGACTTACAAAAAATCGCTTATAATCTTTGGAAGATACG

Assays:
Assay in all cases: filter binding
Grp Y77A = target: T1, Grp Y77A
[1] = target: T2, Grp (glutamine receptor protein)
Grp S32A = target: T3, Grp S32A
[2] = target: T2, Grp (glutamine receptor protein); remark: listed apart in the source

Binder | binding result (Grp Y77A) | Kd [1] | binding signal (Grp S32A) | binding result [2]
B1 | no binding | 188 ± 1 nM | ~5 fold lower binding than wild type | 
B2 |  |  |  | binds

— paper PMC2504300
